We go through five compounds from PMC8886374, “Click Chemistry and Multicomponent Reaction for Linker Diversification of Zinc Dipicolylamine-Based Drug Conjugates” (Frontiers in Chemistry, 2022).

The nature of data set [1]: In vivo pharmacokinetic study, i.v., ICR mice. Set-up: species or system mouse. Conditions: male ICR mice, i.v. 5 mg/kg; for AUCSN-38: SN-38 released from the dosed conjugate; for AUCSN-38 / AUC: 0–24 h; for AUC / clearance / Vd: mouse, in vivo, iv; for AUC: intact conjugate, read-out: AUCconjugate; for clearance / Vd: n = 3; for Vd: read-out: Vss. The protocol:
Six-week-old ICR mice, purchased from Biolasco (Taiwan), were divided into groups of three and 100 µl of dosing solution was given intravenously. Through cardiac puncture, blood sample was collected from each sacrificed animal at time points at 0.003, 0.083, 0.25, 0.5, 1, 2, 4, 6, 8, and 24 h and stored on ice (0–4°C). Plasma was separated from the blood by centrifugation at 3,000 rpm for 15 min at 4°C in a Beckman Model Allegra 6R centrifuge. Analysis of the plasma samples were done by using liquid chromatography with tandem mass spectrometry (LC/MS/MS). A gradient system was used for the separation of analyte and IS. Ammonium acetate aqueous solution (10 mM) containing 0.1% formic acid was used as mobile phase A, while mobile phase B was acetonitrile. The gradient profile was as follows: 0.0–1.1 min, 50%B; 1.2–3.7 min, 55%B–90%B; 3.8–5.0 min, 90%B–50%B at the flow rate of 1.5 ml/min. The autosampler was programmed to inject 15 µl of sample every 5 min.
Next, to address the in vivo longevities and stabilities of U-4CR and/or “clicked” conjugates, in vivo systemic pharmacokinetic studies of conjugates 4–8 were carried out in the ICR mice. One single intravenous dose of 5 mg/kg of each conjugate was given to the mice. Plasma concentrations between the intact conjugate and the active payload (released SN-38 from the conjugate) in the circulation were measured and the pharmacokinetic parameters including clearance (CL), steady-state volume of distribution (Vss), and area under the plasma concentration curve (AUC0–24h) were determined (Table 2). Since SN-38 was the cytotoxic payload, the AUC ratio between the intact conjugate and SN-38 reflected the plasma stability, as these conjugates should be capable of uncaging the payload with higher protease activities in the tumor microenvironment. We envisioned that U-4CR could be a valuable synthetic strategy that unifies several advantageous features for bioactive SMDC in vivo. In addition to installing hydrophilic moiety to increase solubility and functional groups that modulate steady-state volume of distribution of the conjugate in vivo, a facile reactive handle for payload conjugation was also included. Indeed, we observed structure–property trends among the U-4CR-derived conjugates 5–8. Since these conjugates harnessed the same exo-BCN clicked SN-38 portion, the U-4CR products between the Zn-DPA targeting ligand and other components might contribute factors that could affect their in vivo stabilities (Table 2).

Another data set concerns ICR mice. The experiment in a line: In vivo maximum tolerated dose determination (acute toxicity). Conditions: 5-day repeat dose, 1-week recovery monitoring. Set-up: species or system mouse. How it is done: The acute toxicity studies were determined in ICR male mice. In general, the studies were conducted using the dose of 10-50 mpk for dosing 5 consecutive days and the survival of the animals and their body weight were monitored for 14 days after first dosing.
However, acute toxicity is another important parameter to be monitored in the development of SMDC. […] Not limited by the components described within, the optimization of in vivo pharmacokinetic profiles of alternative ZnDPA-based SMDC, we anticipate that U-4CR with combinations of different components can lead to the construction of improved properties, such as decrease in the clearance rate and steady-state volume of distribution (Vss). Moreover, we envision employment of an imaging agent as one of the components can also furnish functional theranostic if desired.

Data set [2] deals with MiaPaca-2 pancreatic cancer cells. Conditions: MiaPaca-2, MTS, 72 h.
Protocol: MiaPaCa-2 cells, obtained from the Bioresource Collection and Research Center, Hsinchu, Taiwan, and the Detroit 551 cells were cultured in Dulbecco’s modified Eagle’s medium (DMEM). All cells were grown in a humidified CO2 incubator at 37°C. Cell viability was determined by the MTS assay. In brief, cells were cultured (2,500–3,000 cells/well) in flat bottomed 96-well plates for 24 h. Serial-diluted conjugates were added to the cell media and incubated for 72 h. Culture medium was removed after 72 h followed by the addition of 100 μl of MTS and PMS mixture solution. In a humidified incubator at 37°C with 5% CO2, cells were then incubated for another 1.5 h for viable cells to convert the tetrazolium salt into formazan. The conversion to formazan was monitored at the 490-nm absorbance by a BioTek PowerWave-X Absorbance Microplate Reader. In this MTS assay, the recorded data were normalized to DMSO-treated and background controls. Using GraphPad Prism version 4 software, the IC50 value was the amount of each conjugate that caused a 50% reduction in cell viability in comparison to DMSO-treated controls.
Data set [3] concerns MiaPaca-2 human pancreatic tumor. The data set is described as follows: In vivo anti-tumor study, MiaPaca-2 xenograft in nude mice. Conditions: MiaPaca-2 tumor-bearing nude mice, i.v.; conjugate 4 10 mg/kg qd (5 + 5); CPT-11 40 mg/kg twice/week for 2 weeks.
Description: The number of viable cells was counted with a hemocytometer with trypan blue staining under a light microscope on the day of tumor cell inoculation. Cells were suspended with phenol red free RPMI-1640 and Matrigel in a 1:1 ratio. MiaPaca-2 suspension cells (1 × 10^6 cells) were implanted subcutaneously into the left flank of the nude mice using a 1-ml syringe (needle 24G × 1 in., 0.55 × 25 mm; TERUMO). A digital caliper was used to measure tumor sizes and dimensions as the tumor volume in mm^3 was calculated with the formula: Volume = (length × width^2)/2. Tumor-bearing mice were randomized (n = 8 per group) and mean tumor volume was approximately 170 mm^3. […] Body weight and tumor size were measured twice weekly.

Broadly, the clearance is the volume of plasma or blood freed of the substance per unit of time. Lower therefore signals inefficient removal. Regarding `CCc1c2c(nc3ccc(OC(=O)c4ccc(CN(CCOCCOCCn5nnc6c5CC[C@H]5[C@@H](CC6)[C@@H]5COC(=O)N(C)CCCC(=O)N(CCCCOc5cc(CN(Cc6ccccn6)Cc6ccccn6)cc(CN(Cc6ccccn6)Cc6ccccn6)c5)C5(C(=O)NC(C)(C)C)CCOCC5)C(=O)C5(c6ccc(Cl)cc6)CCCCC5)cc4)cc13)-c1cc3c(c(=O)n1C2)COC(=O)[C@]3(O)CC` [conjugate 5], in data set [1], the AUCSN-38 worked out at 696 ng·h/mL, the AUC came out at 1590 ng·h/mL, the clearance is 50.2 mL/min/kg and the Vd turned out to be 18.5 L/kg.

`CCOP(=O)(CNC(=O)C1(N(CCCCOc2cc(CN(Cc3ccccn3)Cc3ccccn3)cc(CN(Cc3ccccn3)Cc3ccccn3)c2)C(=O)c2ccc(-c3ccc(O)cc3)cc2)CCN(C(=O)OC[C@H]2[C@@H]3CCc4nnn(CCOCCOCCN(Cc5ccc(C(=O)Oc6ccc7nc8c(c(CC)c7c6)Cn6c-8cc7c(c6=O)COC(=O)[C@]7(O)CC)cc5)C(=O)C5(c6ccc(Cl)cc6)CCCCC5)c4CC[C@@H]32)CC1)OCC` [conjugate 8]: in data set [1], the AUCSN-38 is listed as 1,549 ng/ml*h, the “difference in the AUC for the intact conjugate versus the released SN-38 within 24 h” value is listed as 40 fold, the AUC turned out to be 62000 ng·h/mL and the clearance was 1.3 mL/min/kg. The Vd in data set [1] came to 0.1 L/kg. For the same compound, the “maximum tolerated dose (MTD)” value in the data set on ICR mice was 30 mpk.

In the case of `CCc1c2c(nc3ccc(OC(=O)N4CCC(N5CCCCC5)CC4)cc13)-c1cc3c(c(=O)n1C2)COC(=O)[C@]3(O)CC` [CPT-11, irinotecan], the “decrease in potency towards MiaPaca-2 (IC50 ratio) compared to SN-38” value in data set [2] was about 350 fold. In data set [3], the tumor shrinkage entry is recorded as “not observed”.

Take `C/C=C/C(=O)N(CCCCOc1cc(CN(Cc2ccccn2)Cc2ccccn2)cc(CN(Cc2ccccn2)Cc2ccccn2)c1)C1(C(=O)NC(C)(C)C)CCN(C(=O)OC[C@H]2[C@@H]3CCc4nnn(CCOCCOCCN(Cc5ccc(C(=O)Oc6ccc7nc8c(c(CC)c7c6)Cn6c-8cc7c(c6=O)COC(=O)[C@]7(O)CC)cc5)C(=O)C5(c6ccc(Cl)cc6)CCCCC5)c4CC[C@@H]32)CC1` [conjugate 7]: in data set [1], the AUCSN-38 is on record as 1,309 ng/ml*h, the AUC stood at 20700 ng·h/mL, the clearance came to 8.3 mL/min/kg and the Vd is 3.6 L/kg.

Consider `CCc1c2c(nc3ccc(OC(=O)c4ccc(CN(CCOCCOCCn5nnc6c5CC[C@H]5[C@@H](CC6)[C@@H]5COC(=O)N5CCC(C(=O)N(CCCCOc6cc(CN(Cc7ccccn7)Cc7ccccn7)cc(CN(Cc7ccccn7)Cc7ccccn7)c6)C6(C(=O)NC(C)(C)C)CCOCC6)CC5)C(=O)C5(c6ccc(Cl)cc6)CCCCC5)cc4)cc13)-c1cc3c(c(=O)n1C2)COC(=O)[C@]3(O)CC` [conjugate 6], for which, in data set [1], the AUCSN-38 amounted to 927 ng·h/mL, the AUC came out at 6460 ng·h/mL, the clearance came out at 13.5 mL/min/kg and the Vd turned out to be 4.1 L/kg.
